The EC50 is the concentration that produces a half-maximal response.

The record followed here is patent publication US12723078 (University of Texas, dated 2026).

First the molecules themselves.
B1: B1-#79 (antibody, V domains shown)
VH: QSLEESGGGLVQPEGSLTLTCTVSGFSFSSSWYMCWVRQAPGKGLEWIACIYTLRSGAAHYANWAKGRFTISKASSTTVTLQMNSLTAADTATYFCARATYAYAGAGDLWGPGTLVTVSS
VL: ELVLTQTPSSVSAAVGGTVTINCQASEDIDRYLAWYQQKPGQRPKLLIVDASTLPSGVPSRFKGSGSGTEFTLTISDLECADGATYYCQSYDNSDNNGFGGGTEVVVK
notes: recombinant rabbit IgG
B2: B1-#115 (antibody, V domains shown)
VH: EQSVKESGGGLVQPEGSLTLTCTASGFSFSSSYWICWVRQAPGKGLEWIGCIATGTGSTYYANWVNGRFTMSKPSSTTVTLQMTTLTAADTATYFCARGGGYWSFSLWGPGTLVTISS
VL: ELVMTQTPSSVEAAVGGTVTNKCQASEDIYSNLAWYQQKPGQPPKLLIYGATTLASGVPSRFKGSGSGTEFTLTISDLECADAATYYCQAESNDVWAFGGGTEVVVK
notes: recombinant rabbit IgG
B3: B1-#58-1 (antibody, V domains shown)
VH: EQSLEESGGDLVKPGASLTLTCTASAFSFSSSSWICWVRQAPGKGLEWIACIYGGSVGTTYYASWAKGRFTISKPSSTTVTLQMTSLAAADTATYFCATNTDSSRSYYNLWGPGTLVTISS
VL: ELVLTQTPSSVEVAVGGAVTIKCQASHIITNYLAWYQQRPGQPPKLLIYDASKLASGVPSRFKGSGSGTEFTLTISDLECADAATYYCQNYLYFSSGDWNVFGGGTEVVVK
notes: recombinant rabbit IgG
B4: B1-#83 (antibody, V domains shown)
VH: EQSLKESGGDLVKPGASLTLTCTASAFSFSSSSWICWVRQAPGKGLEWIACIYGGSVATTYYATWAKGRFTISKPSSTTVTLQMTSLPAADTATYFCATNTDSSRSYYNLWGPGTLVTVSS
VL: ELDLTQTPSSVEVAVGGAVTIKCQASHIITNYLAWYQQRPGQPPKLLIYDASKLASGVPSRFKGSGSGTEFTLTISDLECADAATYYCQNYLYFSSGDWNVFGGGTEVVVK
notes: recombinant rabbit IgG
B5: B1-#76 (antibody, V domains shown)
VH: EQSVEESGGGLVQPEGSLTLTCTASGFSFSGSCDMSWVRQAPGKGLEWIACIVLSNGNTYYAGWAQGRFTISKISSTTVTLEMTSLTAADTATYFCARERYPGAFSSGLDLWGQGTLVTVSS
VL: ELDLTQTPSPVSAAVGGTVTINCQASQIVANGRLAWYQQKPGQPPKLLIYATSTLASGVPSRFKGSGSGTQFTLTINGVQCDDAATYYCQGAYSSGDVRTFGGGTEVVVK
notes: recombinant rabbit IgG
B6: B1-#56 (antibody, V domains shown)
VH: QSLEESGGDLVQPEGSLTLTCTASGFSFSINLYMCWVRQAPGKGLEWIACIYGNNNANTYYTTWAKGRFTISKTSPTTVTLQMTSLTGADTATYFCARDTAAYYAFSLWGPGTLVTISS
VL: ELVMTQTPSSSSAAVGGTVTIKCQASQSIGSRFAWYQQKPGQRPKLLIYEASKLPSGVPSRFKGSGSGTEFTLTISDLECADAAIYYCQCTYYESSSGGGFGGGTEVVVK
notes: recombinant rabbit IgG
B7: B1-#220 (antibody, V domains shown)
VH: QSVEESGGGLVQPEGSLTLTCTASGFSFSGIVYMCWVRQAPGKGLEWIACAFVGSGGSTYYATWATGRFTISKTSSTTVTLQMTSLTAADTATYFCAKSYNYNGLGLWGPGTLVTVSS
VL: ELDMTQTPASVSAAVGGTVTIKCQASQSITNALAWYQQKPGQPPKLLIYRASTLASGVSSRFKGSGSGTEFTLTISDLECADAATYYCQCSYYGSTYFGSPFGGGTEVEIK
notes: recombinant rabbit IgG
B8: B1-#160 (antibody, V domains shown)
VH: QEQLVESGGGLVQPEGSLTLTCKASGIDFSSGYWICWVRQAPGKGLELIACIFTSSGTTYYASWAKGRFTISKTSSTTVTLQMTSLTAADTATYFCARDIYSYGMDLWGPGTLVTVSS
VL: ELDLTQTPASVSAAVGGTVTIKCQASQSISSSYLAWYQQKPGQPPKLLIYSASSTASGVPSRFKGSGSGTQFTLTISDLECADAATYYCQSTYISSSKYGAVFGGGTELEIK
notes: recombinant rabbit IgG
B9: B1-#224 (antibody, V domains shown)
VH: EQSVEESGGGLVQPEGSLTLTCTASGIDFSSGAWICWVRQAPGKGLELIACIFTTSGFTYYASWAKGRFTISKTSSTTVTLQMTSLTAADTATYFCARDIYSYGMDLWGPGTLVTISS
VL: ELVLTQTPSSVSEPVGGTVTIKCQASQSISSSYLAWYQQKPGQPPKFLIYSASTLASGVPSRFKGSGSGTEFTLTISDLECADAATYYCQSTYISSSNYGAAFGGGTEVEIK
notes: recombinant rabbit IgG
B10: B1-#38 (antibody, V domains shown)
VH: EQSVEESEGGLVQPEGSLTLTCTASGFSFSNDYWICWVRQAPGKGLEWIGCGHIGSFRTTYYASWAKGRFSISKTSSTTVTLQMTSLTGADTATYFCARSPYDDGYGGFTFNLWGPGTLVTISS
VL: ELDMTQTPSSVEAAVGGTVTVKCQVSQSIGNAIAWYQQKPGQPPKLLIYKASTLASGVPSRFKGSGSGTEFTLTISDLECADAATYYCQNYYYSNTNSFGGGTEVVVK
notes: recombinant rabbit IgG
B11: B1-#15 (antibody, V domains shown)
VH: EQSVEESGGDLVKPGASLTLTCTASGFSSSSSAYMCWVRQAPGKGLEWIACIFIGSGSDSYYATWAKGRFTISKTSSTTVTLQMTSLTAADTATYFCARNTYDWNGYIYGPCYFGLWGPGTLVTISS
VL: ELDLTQTPSSVEAAVGGTVTIKCQASQSIYNYLAWYQQKPGHSPKLLIYDVSKLASGVSSRFKGSGSGTEFTLTISDLECADAATYYCQSYYGNTVSFTFGGGTEVEIK
notes: recombinant rabbit IgG
B12: B1-#175 (antibody, V domains shown)
VH: ESEGGLVKPGGTLTLTCKVSGIDFNSYKYYYMCWVRQAPGKGLEWIGCMSTASRNIYYASWAKGRFTISETSSTSVTLQMTTLTAADTATYFCAKSHGGDGGYGVVLWGPGTLVTISS
VL: ELVMTQTPSSVSAAVGDTLTINCQASETISNRLAWYQQKPGQPPKLLIYSASTLESGVPSRFRGSGSGTQFTLTISDLECADAATYYCQSIRSSSGVVHPNTFGGGTEVEIK
notes: recombinant rabbit IgG
B13: B1-#25 (antibody, V domains shown)
VH: EQSVKESGGGLVQPEGSLTLTCKVSGIDFNYYNYYYMCWVRQAPGKGLEWIGCMSTASANIYLASWAKGRFTISEASSTTVTLQMTSLTAADTATYFCAKSHGGDGGYGVVLWGPGTLVTISS
VL: ELDLTQTPFSVSAAVGGTVTIKCQASETISNRLAWYQQKPGQPPKLLIYSASTLESGVPSRFKGSGSGTEFTLTISDLECADAATYYCQSIRSSSGIVHPNTFGGGTEVEIK
notes: recombinant rabbit IgG
B14: B1-#202-2 (antibody, V domains shown)
VH: SQSLEESGGGLVKPGASLTLTCKGSGFSFNGDYYMCWVRQTPGKGLEWIGCIYAAGDDTYYATWAKGRFTISKTSSTTVTLQMTSLTAADTATYFCARDQADSYAFGLWGPGTLVTISS
VL: ELVLTQTASPVSGAVGGTVTIKCQASQNIYSNLAWYQQKPGQPPKLLIYSASKLASGVPSRFKGSGSGTEYTLTISGVQCEDAATYYCQSYYYTASADTTFGGGTEVEIK
notes: recombinant rabbit IgG
B15: B1-#28 (antibody, V domains shown)
VH: EQSLEESGGGLVKPGASLTLTCKASGFSFSSDYDMCWVRQAPGKGLEWIGCIVTGFSGRIYYATWARGRFTFSRTSSTTLTLQMTSLTAADTATYFCARDSGNYNWDLWGPGTLVTISS
VL: ELDLTQTPTSVSAAVGGTVTIKCQASQSISDYLSWYQQKPGQPPKLLIYRASTLASGVPSRFKGSGSGTEFTLTISDLECADAATYYCQSNYYGSQGCTFGGGTEVEIK
notes: recombinant rabbit IgG

For the assay, the target named is T1, recombinant LILRB1 (human, UniProt Q8NHL6 24-461).
T1 construct: LILRB1-Fc proteins were also made; also called LILRB1 recombinant proteins
T1 sequence (Q8NHL6 24-461 limits assumed): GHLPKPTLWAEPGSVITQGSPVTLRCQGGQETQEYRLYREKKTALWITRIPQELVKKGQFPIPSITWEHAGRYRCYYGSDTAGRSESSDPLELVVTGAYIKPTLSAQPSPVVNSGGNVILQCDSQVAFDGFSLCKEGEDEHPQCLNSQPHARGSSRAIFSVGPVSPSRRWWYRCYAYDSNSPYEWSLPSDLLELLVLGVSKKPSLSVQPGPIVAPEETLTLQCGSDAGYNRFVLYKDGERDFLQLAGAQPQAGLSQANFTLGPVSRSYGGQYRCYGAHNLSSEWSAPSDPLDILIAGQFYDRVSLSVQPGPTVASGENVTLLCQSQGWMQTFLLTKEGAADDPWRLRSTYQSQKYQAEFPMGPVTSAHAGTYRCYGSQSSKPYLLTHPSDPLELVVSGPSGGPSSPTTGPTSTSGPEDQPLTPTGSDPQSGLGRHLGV
As to the kind of experiment: ELISA, coated recombinant LILRB1, antibody titration.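 Note: serially diluted anti-LILRB1 antibodies incubated 60 min at 37 °C on plates coated with 50 ng/well recombinant protein, TMB colorimetric development read as absorbance at 450 nm.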
Description: ELISA. LILRB1 recombinant proteins (50 ng/well, 100 μL per well) were coated on Corning 96-well ELISA plates at 37° C. for 4 hrs. Plates were blocked for 2 hrs at 37° C. with 5% non-fat milk. After washing with PBST, 100 μL of serial diluted anti-LILRB1 antibodies were added and incubated for 60 min at 37° C. […] Plates were washed again with PBST for another 5 times, then the immunoreactions were developed with TMB substrates (Sigma, Cat #T0440) and stopped by the addition of 2 M H_2SO_4 before the plate was read at 450 nm.
As to B1, the EC50 stood at 0.0154 µg/mL.
Take B2: the EC50 was 0.052 µg/mL.
To B3 belongs 0.0171 µg/mL; to B4, 0.0155 µg/mL; to B5, 0.0284 µg/mL.
As to B6, the EC50 was 0.0438 µg/mL.
Take B7: the EC50 came to 0.0106 µg/mL.
To B8 belongs 0.0285 µg/mL; to B9, 0.0109 µg/mL; to B10, 0.181 µg/mL.
To B11 belongs 0.0093 µg/mL; to B12, 0.0053 µg/mL.
As to B13, the EC50 came to 0.0132 µg/mL.
To B14 belongs 0.0594 µg/mL.
To B15 belongs 0.0242 µg/mL.
